According to article PMC4030970, “Structural Evidence for the Tetrameric Assembly of Chemokine CCL11 and the Glycosaminoglycan Arixtra™” (Biomolecules, 2013):
Where “and” joins values, the source holds several entries; their conditions need not be identical. Identical values can stand only once.

How the values were obtained:
[1] = molecular target: human chemokine CCL11 (Eotaxin-1) (human) (UniProt P51671); test: native MS; ion mobility MS (Waters Synapt G2 HDMS), nanospray; CCL11 alone at 20 μM in 250 mM ammonium acetate (pH 6.8), native conditions
[2] = molecular target: human chemokine CCL11 (Eotaxin-1) (human) (UniProt P51671); test: crystal structure; very preliminary X-ray structure of the CCL11 tetramer bound to Arixtra; de-twinned; Rfactor 17.6%, Rfree 26.7%; not deposited
[3] = molecular target: human chemokine CCL11 (Eotaxin-1) (human) (UniProt P51671); test: native MS; ion mobility MS (Waters Synapt G2 HDMS), nanospray; equimolar (1:1) mixture of CCL11 and Arixtra in 250 mM ammonium acetate; oligomers seen unbound and bound to Arixtra; MS/MS of the [tetramer+Arixtra]12+ ion gives monomer and trimer+Arixtra

human chemokine CCL11 (Eotaxin-1), P51671 24-97 (natural protein; other documents disagree on this pair), sequence (P51671 24-97): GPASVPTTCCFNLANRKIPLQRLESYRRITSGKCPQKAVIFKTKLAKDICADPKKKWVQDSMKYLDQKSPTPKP

Question: For “human chemokine CCL11 (Eotaxin-1), P51671 24-97 (natural protein; other documents disagree on this pair)”, which stoichiometry N [1] is on record?
Answer: 4 and 2

Question: And the stoichiometry N [2]?
Answer: 4

Question: And the stoichiometry N ([3]; Dimer + Arixtra)?
Answer: 2

Question: And the stoichiometry N ([3]; Tetramer + Arixtra)?
Answer: 4
